US20220332844A1 (ORIONIS BIOSCIENCES, published 2022)
Substitutions are numbered along the chain they refer to. In names and notes the source's numbering stands.

Assays:
[1] = biological target: T1, mouse FAP on transiently transfected HEK293T cells (pMET7 FLAG-mFAP) (mouse, UniProt P97321 1-761); test: FACS, serial dilution of purified VHH on transfected HEK293T cells
T1 construct: whole, on cells; not shown: FLAG tag of the plasmid pMET7 FLAG-mFAP
T1 sequence (looked up): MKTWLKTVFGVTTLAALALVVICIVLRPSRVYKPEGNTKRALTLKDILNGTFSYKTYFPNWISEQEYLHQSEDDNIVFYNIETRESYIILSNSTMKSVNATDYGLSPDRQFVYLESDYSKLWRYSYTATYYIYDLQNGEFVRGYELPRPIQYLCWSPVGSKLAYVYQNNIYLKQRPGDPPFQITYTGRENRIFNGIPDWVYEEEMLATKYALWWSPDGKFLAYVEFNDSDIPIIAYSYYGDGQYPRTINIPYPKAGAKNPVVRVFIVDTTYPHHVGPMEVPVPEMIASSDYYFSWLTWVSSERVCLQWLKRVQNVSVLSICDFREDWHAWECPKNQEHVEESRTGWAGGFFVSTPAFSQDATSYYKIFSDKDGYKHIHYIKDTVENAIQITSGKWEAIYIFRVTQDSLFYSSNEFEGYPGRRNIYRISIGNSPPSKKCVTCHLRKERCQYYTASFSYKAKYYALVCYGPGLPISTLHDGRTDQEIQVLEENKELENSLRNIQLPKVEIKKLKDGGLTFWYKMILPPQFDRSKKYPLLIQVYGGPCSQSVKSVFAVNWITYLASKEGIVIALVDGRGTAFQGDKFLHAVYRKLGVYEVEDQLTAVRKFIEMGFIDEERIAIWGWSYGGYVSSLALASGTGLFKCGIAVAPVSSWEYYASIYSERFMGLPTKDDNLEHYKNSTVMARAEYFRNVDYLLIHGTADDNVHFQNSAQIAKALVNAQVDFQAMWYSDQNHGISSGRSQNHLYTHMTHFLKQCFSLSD

[2] = biological target: T2, recombinant FAP protein (BioLegend), biotinylated (Homo sapiens (Human), UniProt Q12884 26-760, Biotinylated (sites not given) for loading on streptavidin sensors. Any vendor tag is not stated in the passages shown.); test: BLI (Octet RED96), biotinylated FAP on streptavidin sensors
T2 construct: Loaded on streptavidin sensors for BLI; also called biotinylated FAP
T2 sequence: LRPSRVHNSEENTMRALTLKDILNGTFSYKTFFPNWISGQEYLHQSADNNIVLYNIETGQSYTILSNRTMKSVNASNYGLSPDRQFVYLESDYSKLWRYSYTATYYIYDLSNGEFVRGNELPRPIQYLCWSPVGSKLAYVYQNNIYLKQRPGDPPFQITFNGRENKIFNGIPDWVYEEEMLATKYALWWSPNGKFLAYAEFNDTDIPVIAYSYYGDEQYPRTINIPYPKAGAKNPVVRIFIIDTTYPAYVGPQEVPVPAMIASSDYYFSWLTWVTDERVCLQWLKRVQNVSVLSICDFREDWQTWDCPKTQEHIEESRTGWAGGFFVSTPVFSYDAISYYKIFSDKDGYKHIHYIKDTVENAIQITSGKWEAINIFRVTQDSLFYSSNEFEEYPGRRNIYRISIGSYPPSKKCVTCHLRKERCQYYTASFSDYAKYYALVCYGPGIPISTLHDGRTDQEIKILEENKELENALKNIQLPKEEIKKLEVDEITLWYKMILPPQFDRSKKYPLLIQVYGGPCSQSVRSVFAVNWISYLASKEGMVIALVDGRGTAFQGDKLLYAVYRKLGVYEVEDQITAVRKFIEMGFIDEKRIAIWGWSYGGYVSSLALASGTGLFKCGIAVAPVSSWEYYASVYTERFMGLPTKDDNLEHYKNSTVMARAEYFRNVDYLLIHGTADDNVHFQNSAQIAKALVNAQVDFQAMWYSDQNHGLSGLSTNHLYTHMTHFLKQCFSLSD

B1: 2PE14 (VHH)
VHH: QVQLQESGGGLVQPGGSLRLSCAASGSTFSINAVAWYRQAPGKRRELVAGISGGGVTNYPDSVKGRFTISRDNAKNTVYLQMSSLKPEDTAVYYCNLWPPRASPGGRVYWGQGTQVTVSS
B1: binds [1].

B2: P-1901: 2PE14 (VHH)
VHH: B1 VHH
notes: also called pET28 PelB-2PE14
B2 was tested, and the Kd [2] was 0.667 nM.

B3: P-1926: 3PE42_M31E (VHH)
VHH: B1 VHH with G16E, A24V, F29S, I31E, V34M, V56A, R107G
notes: also called pET28 PelB-3PE42_M42E
B3 showed a Kd [2] of 1.85 nM.

B4: P-1925: 3PE42_M31D (VHH)
VHH: B1 VHH with G16E, A24V, F29S, I31D, V34M, V56A, R107G
notes: also called pET28 PelB-3PE42_M42D
B4 showed a Kd [2] of 0.165 nM.

B5: P-1920: 2PE14_N32V (VHH)
VHH: B1 VHH with N32V
notes: also called pET28 PelB-2PE14_N32V
With B5 the Kd [2] was 100 nM.

B6: P-1928: 3PE42_M31G (VHH)
VHH: B1 VHH with G16E, A24V, F29S, I31G, V34M, V56A, R107G
notes: also called pET28 PelB-3PE42_M42G
B6 showed a Kd [2] of 4.02 nM.

B7: P-1934: 3PE42_M31P (VHH)
VHH: B1 VHH with G16E, A24V, F29S, I31P, V34M, V56A, R107G
notes: also called pET28 PelB-3PE42_M42P
For B7, the Kd [2] was 1.34 nM.

B8: P-1917: 2PE14_N32R (VHH)
VHH: B1 VHH with N32R
notes: also called pET28 PelB-2PE14_N32R
Binder B8 has a Kd [2] of 0.317 nM.

B9: P-1930: 3PE42_M31I (VHH)
VHH: B1 VHH with G16E, A24V, F29S, V34M, V56A, R107G
notes: also called pET28 PelB-3PE42_M42I
B9 gave a Kd [2] of 2.87 nM.

B10: P-1902: 2PE14_opt1 (Q1D_Q5V_A74S_K83R_Q108L) (VHH)
VHH: B1 VHH with Q1D, Q5V, A74S, K86R, Q115L
notes: also called pET28 PelB-2PE14_opt1
B10 was tested, and the Kd [2] was 0.0951 nM.

B11: P-1936: 3PE42_M31R (VHH)
VHH: B1 VHH with G16E, A24V, F29S, I31R, V34M, V56A, R107G
notes: also called pET28 PelB-3PE42_M42R
B11 showed a Kd [2] of 0.0276 nM.

B12: P-1906: 2PE14_N32A (VHH)
VHH: B1 VHH with N32A
notes: also called pET28 PelB-2PE14_N32A
Work on B12 yielded a Kd [2] of 3.56 nM.

B13: P-1924: 3PE42_M31A (VHH)
VHH: B1 VHH with G16E, A24V, F29S, I31A, V34M, V56A, R107G
notes: also called pET28 PelB-3PE42_M42A
B13 gave a Kd [2] of 0.0889 nM.

B14: P-1941: 3PE42_M31Y (VHH)
VHH: B1 VHH with G16E, A24V, F29S, I31Y, V34M, V56A, R107G
notes: also called pET28 PelB-3PE42_M42Y
With B14 the Kd [2] was 1.12 nM.

B15: P-1922: 2PE14_N32Y (VHH)
VHH: B1 VHH with N32Y
notes: also called pET28 PelB-2PE14_N32Y
B15 showed a Kd [2] of 14.5 nM.

B16: 2PE36 (VHH)
VHH: B1 VHH with G105D
B16: binds [1].

B17: P-1935: 3PE42_M31Q (VHH)
VHH: B1 VHH with G16E, A24V, F29S, I31Q, V34M, V56A, R107G
notes: also called pET28 PelB-3PE42_M42Q
Work on B17 yielded a Kd [2] of 0.214 nM.

B18: 2PE44 (VHH)
VHH: B1 VHH with I31V, K86I
B18: binds [1].

B19: P-1939: 3PE42_M31V (VHH)
VHH: B1 VHH with G16E, A24V, F29S, I31V, V34M, V56A, R107G
notes: also called pET28 PelB-3PE42_M42V
B19 showed a Kd [2] of 2.45 nM.

B20: P-1904: 2PE14_opt3 (Q1D_Q5V_A74S_S82N_K83R_Q108L) (VHH)
VHH: B1 VHH with Q1D, Q5V, A74S, S83N, K86R, Q115L
notes: also called pET28 PelB-2PE14_opt3 (idem + S82N)
B20 gave a Kd [2] of 0.653 nM.

B21: 2PE40 (VHH)
VHH: B1 VHH with G26E, T77I
B21: binds [1].

B22: P-1913: 2PE14_N32K (VHH)
VHH: B1 VHH with N32K
notes: also called pET28 PelB-2PE14_N32K
With B22 the Kd [2] was 2.67 nM.

B23: P-1929: 3PE42_M31H (VHH)
VHH: B1 VHH with G16E, A24V, F29S, I31H, V34M, V56A, R107G
notes: also called pET28 PelB-3PE42_M42H
B23 gave a Kd [2] of 1.12 nM.

B24: P-1903: 2PE14_opt2 (Q1D_Q5V_P60A_A74S_K83R_Q108L) (VHH)
VHH: B1 VHH with Q1D, Q5V, P60A, A74S, K86R, Q115L
notes: also called pET28 PelB-2PE14_opt2 (idem + P60A)
Work on B24 yielded a Kd [2] of 2.26 nM.

B25: P-1933: 3PE42_M31N (VHH)
VHH: B1 VHH with G16E, A24V, F29S, I31N, V34M, V56A, R107G
notes: also called pET28 PelB-3PE42_M42N
With B25 the Kd [2] was 0.567 nM.

B26: P-1910: 2PE14_N32G (VHH)
VHH: B1 VHH with N32G
notes: also called pET28 PelB-2PE14_N32G
B26 showed a Kd [2] of 4.62 nM.

B27: P-1905: 2PE14_opt4 (Q1D_Q5V_P60A_A74S_S82N_K83R_Q108L) (VHH)
VHH: B1 VHH with Q1D, Q5V, P60A, A74S, S83N, K86R, Q115L
In the case of B27, the Kd [2] is reported as 3.76 nM.

B28: P-1908: 2PE14_N32E (VHH)
VHH: B1 VHH with N32E
notes: also called pET28 PelB-2PE14_N32E
Work on B28 yielded a Kd [2] of 1.09 nM.

B29: P-1919: 2PE14_N32T (VHH)
VHH: B1 VHH with N32T
notes: also called pET28 PelB-2PE14_N32T
Binder B29 has a Kd [2] of 4.11 nM.

B30: P-1909: 2PE14_N32F (VHH)
VHH: B1 VHH with N32F
notes: also called pET28 PelB-2PE14_N32F
In the case of B30, the Kd [2] is reported as 0.468 nM.

B31: P-1914: 2PE14_N32L (VHH)
VHH: B1 VHH with N32L
notes: also called pET28 PelB-2PE14_N32L
B31 gave a Kd [2] of 1.25 nM.

B32: P-1927: 3PE42_M31F (VHH)
VHH: B1 VHH with G16E, A24V, F29S, I31F, V34M, V56A, R107G
notes: also called pET28 PelB-3PE42_M42F
In the case of B32, the Kd [2] is reported as 1.17 nM.

B33: P-1931: 3PE42_M31K (VHH)
VHH: B1 VHH with G16E, A24V, F29S, I31K, V34M, V56A, R107G
notes: also called pET28 PelB-3PE42_M42K
For B33, the Kd [2] was 0.851 nM.

B34: 2PE17 (VHH)
VHH: B1 VHH with P14S
B34: binds [1].

B35: P-1923: 3PE42 (VHH)
VHH: B1 VHH with G16E, A24V, F29S, I31M, V34M, V56A, R107G
notes: also called pET28 PelB-3PE42
B35 was tested, and the Kd [2] was 0.588 nM.

B36: P-1911: 2PE14_N32H (VHH)
VHH: B1 VHH with N32H
notes: also called pET28 PelB-2PE14_N32H
Work on B36 yielded a Kd [2] of 3.69 nM.

B37: P-1921: 2PE14_N32W (VHH)
VHH: B1 VHH with N32W
notes: also called pET28 PelB-2PE14_N32W
B37 was tested, and the Kd [2] was 0.221 nM.

B38: P-1916: 2PE14_N32Q (VHH)
VHH: B1 VHH with N32Q
notes: also called pET28 PelB-2PE14_N32Q
B38 was tested, and the Kd [2] was 0.386 nM.

B39: P-1912: 2PE14_N32I (VHH)
VHH: B1 VHH with N32I
notes: also called pET28 PelB-2PE14_N32I
Work on B39 yielded a Kd [2] of 16.8 nM.

B40: P-1907: 2PE14_N32D (VHH)
VHH: B1 VHH with N32D
notes: also called pET28 PelB-2PE14_N32D
With B40 the Kd [2] was 10.8 nM.

B41: P-1938: 3PE42_M31T (VHH)
VHH: B1 VHH with G16E, A24V, F29S, I31T, V34M, V56A, R107G
notes: also called pET28 PelB-3PE42_M42T
Work on B41 yielded a Kd [2] of 1.16 nM.

B42: 2PE42 (VHH)
VHH: B1 VHH with P14A, K64R, G105D
B42: binds [1].

B43: P-1915: 2PE14_N32P (VHH)
VHH: B1 VHH with N32P
notes: also called pET28 PelB-2PE14_N32P
With B43 the Kd [2] was 1.17 nM.

B44: P-1932: 3PE42_M31L (VHH)
VHH: B1 VHH with G16E, A24V, F29S, I31L, V34M, V56A, R107G
notes: also called pET28 PelB-3PE42_M42L
Work on B44 yielded a Kd [2] of 0.872 nM.

B45: P-1937: 3PE42_M31S (VHH)
VHH: B1 VHH with G16E, A24V, F29S, I31S, V34M, V56A, R107G
notes: also called pET28 PelB-3PE42_M42S
B45 gave a Kd [2] of 0.613 nM.

B46: P-1918: 2PE14_N32S (VHH)
VHH: B1 VHH with N32S
notes: also called pET28 PelB-2PE14_N32S
Work on B46 yielded a Kd [2] of 556 nM.

B47: P-1940: 3PE42_M31W (VHH)
VHH: B1 VHH with G16E, A24V, F29S, I31W, V34M, V56A, R107G
notes: also called pET28 PelB-3PE42_M42W
B47 gave a Kd [2] of 0.0945 nM.
